{"source": "paper PMC3718800", "about": "“Structural and Functional Perturbation of Giardia lamblia Triosephosphate Isomerase by Modification of a Non-Catalytic, Non-Conserved Region” (PLoS ONE, 2013)"}
{"test_system": "O=C[C@H](O)COP(=O)(O)O", "assay": "Coupled alpha-glycerol-3-phosphate dehydrogenase assay following NADH decrease at 340 nm at 25°C in 100 mM triethanolamine/10 mM EDTA, pH 7.4, with 0.2 mM NADH and GAP varied from 0.3 to 3 mM, fitted to the Michaelis-Menten equation by non-linear regression.", "assay_type": "biochemical", "procedure": "Glyceraldehyde 3-phosphate (GAP), buffers, salts and all the other analytical grade reagents were acquired from Sigma–Aldrich; α-glycerol-3-phosphate dehydrogenase (α-GDH) was from Roche, crystallization screen kits were obtained from Hampton Research. Restriction enzymes, DNA polymerase and T4 DNA ligase were purchased from New England BioLabs and Invitrogene. Oligonucleotide synthesis and DNA sequencing was performed at the Unidad de Biología Molecular, Instituto de Fisiología Celular, UNAM. Protein concentration was determined by the bicinchoninic acid method or by absorbance at 280 nm for pure GlTIM (ε280 = 26600 M^-1cm^-1). The TIM activity was determined at 25°C by a coupled assay, following the decrease in absorbance at 340 nm. The standard reaction mixture contained 100 mM triethanolamine/10 mM EDTA, pH 7.4 (TE buffer), 1 mM GAP, 0.2 mM NADH, and 0.9 units of α-GDH (20 μg/mL); the reaction was initiated by addition of 5 ng/mL of WT, C222V or C222M GlTIM, 10 ng/mL of C222N, 20 ng/mL of C222D or C222F, and 200 ng/mL of C222K. Kinetic, binding and stability data were analyzed by non-linear regression calculations with Origin software.\nDetermination of Km and Vmax was performed by fitting initial velocity data at GAP concentrations ranging from 0.3 to 3 mM to the Michaelis-Menten equation (v = Vmax•S/Km+S) by non-linear regression calculations. The kcat was derived from Vmax by considering a molecular mass for the monomer of 27.7 kDa. The Ki for 2-phosphoglycolate (2-PG) was calculated by global fit of initial velocity curves (GAP from 0.3 to 3 mM) obtained at different fixed concentrations of the inhibitor. Prior to fitting collectively the data to the simple competitive inhibition equation (v = Vmax•S/Km(1+I/Ki)+S), individual data were plotted as double reciprocal plots to confirm competitive inhibition.", "units": {"Km": "µM", "Vmax": "µmol/min/mg", "kcat": "s⁻¹"}}
{"substance": "C222D (Giardia duodenalis; C222D)", "Km": "4880 ± 810", "Vmax": 3720, "kcat": 3330}
{"substance": "C222V (Giardia duodenalis; C222V)", "Km": "960 ± 120", "Vmax": 9560, "kcat": 8670}
{"substance": "C222F (Giardia duodenalis; C222F)", "Km": "3900 ± 460", "Vmax": 1660, "kcat": 1500}
{"substance": "C222N (Giardia duodenalis; C222N)", "Km": "2790 ± 730", "Vmax": 3650, "kcat": 3320}
{"substance": "C222K (Giardia duodenalis; C222K)", "Km": "3100 ± 640", "Vmax": 255, "kcat": 217}
{"substance": "C222M (Giardia duodenalis; C222M)", "Km": "1850 ± 460", "Vmax": 3100, "kcat": 2800}
